Assay results reported in paper doi:10.1101/2022.03.31.486616.

Target: E. cloacae Cap2 (C109A/C548A), catalytically dead (E. cloacae)
Assay: cryo-EM structure

E. cloacae Cap2 (C109A/C548A), catalytically dead (enzyme)
stoichiometry N: 2
